Laboratory results from patent US20230088052A1 (JIANGSU HENGRUI PHARMACEUTICALS, published 2023).
Like-named read-outs stand apart in the source and are kept apart here.

T1: his-tagged mouse IL-4R recombinant protein (m-IL-4R-his) (mouse, UniProt P16382 26-233)
T1 construct: range 26-233; also called Murine IL-4R-his; not shown: his tag
T1 sequence (looked up): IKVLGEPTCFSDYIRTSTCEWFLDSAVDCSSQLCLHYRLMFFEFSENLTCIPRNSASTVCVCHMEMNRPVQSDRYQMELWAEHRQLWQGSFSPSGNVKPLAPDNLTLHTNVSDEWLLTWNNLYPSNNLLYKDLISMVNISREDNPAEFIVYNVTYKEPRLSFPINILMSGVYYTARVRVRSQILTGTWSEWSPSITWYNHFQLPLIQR

B1: murine monoclonal antibody 25G7 (antibody, V domains shown)
VH: EVQLVESGGGLVKPGGSLKLSCAASGFTFSDYGMHWVRQAPEKGLEWVAFISSGSSIIYYADIVKGRSTISRDNAKNTLFLQMTSLRSEDTAMYYCTRGNKRGFFDYWGQGTILTVSS
VL: QIVLTQSPALMSASPGEKVTMTCNASSSVSYMYWYQRKPRSSPKPWIYLTSNLASGVPVRFSGSGSGTSYSLTISSMEAEDAATYYCQQWRSNPPMLTFGSGTKLEVK
notes: also called hybridoma 25G7
B2: hu25G7-A antibody (antibody, human IgG4 S228P, kappa, V domains shown)
VH: EVQLVESGGGLVQPGGSLRLSCAASGFTFSDYGMHWVRQAPGKGLEWVAFISSGSSIIYYADIVKGRSTISRDNAKNTLYLQMNSLRAEDTAVYYCTRGNKRGFFDYWGQGTLVTVSS
VL: EIVLTQSPATLSLSPGERATLSCRASSSVPYMYWYQQKPGQAPRLLIYLTSNLASGIPARFSGSGSGTDFTLTISSLEPEDFAVYYCQQWRAYPPMLTFGGGTKVEIKR
B3: human-murine chimeric antibody 25G7-C (antibody, V domains shown)
VH: EVQLVESGGGLVKPGGSLKLSCAASGFTFSDYGMHWVRQAPEKGLEWVAFISSGSSIIYYADIVKGRSTISRDNAKNTLFLQMTSLRSEDTAMYYCTRGNKRGFFDYWGQGTILTVSS
VL: QIVLTQSPALMSASPGEKVTMTCNASSSVSYMYWYQRKPRSSPKPWIYLTSNLASGVPVRFSGSGSGTSYSLTISSMEAEDAATYYCQQWRSNPPMLTFGSGTKLEVK
notes: Expressed in HEK293 cells
B4: hu25G7-B antibody (antibody, human IgG4 S228P, kappa, V domains shown)
VH: EVQLVESGGGLVQPGGSLRLSCAASGFTFSDYGMHWVRQAPGKGLEWVAFISSGSSIIYYADIVKGRSTISRDNAKNTLYLQMNSLRAEDTAVYYCTRGNKRGFFDYWGQGTLVTVSS
VL: EIVLTQSPATLSLSPGERATLSCRASPGVPPLAWYQQKPGQAPRLLIYLASSRPSGIPARFSGSGSGTDFTLTISSLEPEDFAVYYCQQWRSNPPMLTFGGGTKVEIKR
B5: humanized antibody hu25G7 (antibody, human IgG4 S228P, kappa, V domains shown)
VH: EVQLVESGGGLVQPGGSLRLSCAASGFTFSDYGMHWVRQAPGKGLEWVAFISSGSSIIYYADIVKGRSTISRDNAKNSLYLQMNSLRAEDTAVYYCTRGNKRGFFDYWGQGTLVTVSS
VL: EIVLTQSPATLSLSPGERATLSCNASSSVSYMYWYQQKPGQAPRLLIYLTSNLASGIPARFSGSGSGTDFTLTISSLEPEDFAVYYCQQWRSNPPMLTFGGGTKVEIKR
notes: Uses the VH-c heavy chain and the VL-a light chain; also called wild-type hu25G7
B6: Dupilumab (antibody, V domains shown)
VH: EVQLVESGGGLEQPGGSLRLSCAGSGFTFRDYAMTWVRQAPGKGLEWVSSISGSGGNTYYADSVKGRFTISRDNSKNTLYLQMNSLRAEDTAVYYCAKDRLSITIRPRYYGLDVWGQGTTVTVSS
VL: DIVMTQSPLSLPVTPGEPASISCRSSQSLLYSIGYNYLDWYLQKSGQSPQLLIYLGSNRASGVPDRFSGSGSGTDFTLKISRVEAEDVGFYYCMQALQTPYTFGQGTKLEIKR
B7: human-murine chimeric antibody 7B10-C (antibody, V domains shown)
VH: QVQLQQPGTELLKPGASVSLSCKASGYTFTSYWMHWVKQRPGQGLEWIGLIHPNSDTTKFSENFKTRATLTIDKSSSTAYMKLSSLTSEDSAVYYCAKSKIITTIVARHWYFDVWGTGTTVTVSS
VL: DIVLTQSPPSLAVSLGQRATISCKASQSVDYGGDSYMNWYQQKLGQPPKVLIYAASNLESGIPARFSGSGSGTDFTLNIHPVEEEDVATYYCQHSNENPPTFGGGTKLEIK
notes: Expressed in HEK293 cells
B8: murine monoclonal antibody 7B10 (antibody, V domains shown)
VH: QVQLQQPGTELLKPGASVSLSCKASGYTFTSYWMHWVKQRPGQGLEWIGLIHPNSDTTKFSENFKTRATLTIDKSSSTAYMKLSSLTSEDSAVYYCAKSKIITTIVARHWYFDVWGTGTTVTVSS
VL: DIVLTQSPPSLAVSLGQRATISCKASQSVDYGGDSYMNWYQQKLGQPPKVLIYAASNLESGIPARFSGSGSGTDFTLNIHPVEEEDVATYYCQHSNENPPTFGGGTKLEIK
notes: also called hybridoma 7B10
B9: humanized antibody hu7B10 (antibody, human IgG1, kappa, V domains shown)
VH: EVQLVQSGAEVKKPGASVKVSCKASGYTFTSYWMHWVRQAPGQGLEWMGLIHPNSDTTKFSENFKTRVTMTIDTSISTAYMELSRLRSDDTAVYYCAKSKIITTIVARHWYFDVWGQGTTVTVSS
VL: DIVLTQTPLSLSVTPGQPASISCKASQSVDYGGDSYMNWYLQKPGQPPQLLIYAASNLESGVPDRFSGSGSGTDFTLKISRVEAEDVGVYYCQHSNENPPTFGGGTKVEIKR
notes: Uses the VH-b heavy chain and the VL-b light chain

How the values were obtained:
[1] = biological target: T2, human IL-4R on cells (HEK-Blue IL-4 cells, TF-1 cells) (human, UniProt P24394 26-825); experiment: cell-based or functional assay
[2] = biological target: T1, his-tagged mouse IL-4R recombinant …; experiment: ELISA, IL-4R-his coated on the plate
[3] = biological target: T3, his-tagged human IL-4R recombinant protein (h-IL-4R-his) (human, UniProt P24394 26-232); experiment: binding ELISA, human IL-4R-his coated
T3 construct: range 26-232; Made by Acrobiosystems in HEK293; also called Human IL-4R-his; not shown: his tag
Protocol: ELISA experiment was used to detect binding properties of anti-IL-4R antibodies. A microplate was coated with his-tagged IL-4R recombinant protein. After the antibody was added to each well, the activity of the binding of the antibody to the antigen was detected by adding a secondary antibody (HRP-conjugated anti-primary antibody Fc antibody) and HRP substrate TMB.
Human or rhesus IL-4R-his protein was coated on a 96-well microplate, 100 μL per well at a concentration of 0.5 μg/mL, and incubated overnight at 4° C. The plate was washed three times with washing buffer at 250 μL per well. A blocking solution was added at 200 μL per well and the plate was incubated at room temperature for 2 h. The plate was washed three times with washing buffer at 250 μL per well. Anti-IL-4R antibody to be tested diluted in diluent was added at 100 μL per well. The plate was incubated at room temperature for 1 h. The plate was washed three times with washing buffer at 250 μL per well. HRP-labeled goat anti-human IgG secondary antibody diluted at 1:20000 with diluent was added at 100 μL per well. The plate was incubated at room temperature for 1 h. The plate was washed three times with washing buffer at 250 μL per well. TMB was added at 100 μL per well, and the mixture was reacted for 15 min in the dark. 0.16 M/L sulfuric acid was added at 50 μL per well. The OD value was read at 450 nm by a Thermo MultiSkanFc microplate reader and the binding EC₅₀ value of the anti-IL-4R antibody to IL-4R was calculated.

[4] = biological target: T4, humanized Fc-tagged human IL-4R recombinant protein (h-IL-4R-Fc) (human, UniProt P24394 26-232); experiment: blocking ELISA: human IL-4R-Fc coated, antibody blocks the binding of IL-4
T4 construct: range 1-232; The printed range starts at Met1, so it includes the signal peptide of the construct; also called Human IL-4R-Fc; not shown: Fc tag
Protocol: (§1) Human IL-4R-Fc protein was coated on a 96-well microplate, 100 μL per well at a concentration of 0.5 μg/mL, and incubated overnight at 4° C. The plate was washed three times with washing buffer at 250 μL per well. A blocking solution was added at 200 μL per well and the plate was incubated at room temperature for 2 h. The plate was washed three times with washing buffer at 250 μL per well. Anti-IL-4R antibody to be tested diluted in diluent was added at 100 μL per well, and the plate was incubated at room temperature for 1 h. The plate was washed three times with washing buffer at 250 μL per well. […] HRP-labeled Neutravidin diluted in a diluent at 1:5000 was added, and the plate was incubated at room temperature for 1 h. The plate was washed three times with washing buffer at 250 μL per well. TMB was added at 100 μL per well, and the mixture was reacted for 15 min in the dark. 0.16 M/L sulfuric acid was added at 50 μL per well.

[5] = biological target: T2, human IL-4R on cells (HEK-Blue IL-4 …); experiment: cell-based or functional assay; remark: listed apart in the source
[6] = biological target: T4, humanized Fc-tagged human IL-4R …; experiment: blocking ELISA of human IL-4/IL-4R
Protocol: as §1

[7] = biological target: T2, human IL-4R on cells (HEK-Blue IL-4 …); experiment: cell-based or functional assay; remark: listed apart in the source
[8] = biological target: T3, his-tagged human IL-4R recombinant …; experiment: Biacore SPR: antibody captured, IL-4R antigen in flow, 1:1 model
Source text: Human antibody capture antibody was covalently coupled to a biosensor chip CMS of Biacore instrument (Biacore X100, GE) according to the method described in the instruction of human antibody capture kit (Cat #BR-1008-39, GE), and thus a certain amount of antibodies to be tested were captured based on affinity. Then a series of concentration gradients of IL-4R antigens (the IL-4R antigens all purchased from Acrobiosystems, Cat #ILR-H5221) flowed through the surface of chip, and the Biacore instrument (Biacore X100, GE) was used to detect the reaction signals in real time to obtain the binding and dissociation curves. After each cycle of dissociation was completed, the biochip was washed and regenerated with a regeneration solution prepared in the human antibody capture kit. The amino coupling kit used in the experiment was purchased from GE corporation (Cat #BR-1000-50, GE), and the buffer was HBS-EP+ 10× buffer solution (Cat #BR-1006-69, GE) diluted to 1× (pH 7.4) with D.I. Water.
The data obtained from the experiment were fitted with BiacoreX100 evaluation software 2.0 GE software with a (1:1) binding model to obtain affinity values.

[9] = biological target: T2, human IL-4R on cells (HEK-Blue IL-4 …); experiment: cell-based or functional assay; remark: listed apart in the source

Row | Binder | IC50 for blocking binding of HEK293-Blue IL-4 cells (to IL-4) [1] [µg/mL] | IC50 for inhibiting IL-4-related proliferation of TF-1 cells [1] [µg/mL] | binding result [2] | EC50 [3] [µg/mL] | IC50 [4] [µg/mL] | Blocking binding of HEK293-Blue cells (to IL-4) (IC50) [5] [µg/mL] | Blocking binding of HEK293-Blue cells (to IL-13) (IC50) [5] [µg/mL] | Inhibiting IL-4-related proliferation of TF-1 cells (IC50) [5] [µg/mL] | Inhibiting IL-13-related proliferation of TF-1 cells (IC50) [5] [µg/mL] | IC50 [6] [µg/mL] | Blocking binding of HEK293-Blue IL-4 cells (to IL-4) (IC50) [7] [µg/mL] | Inhibiting IL-4-related proliferation of TF-1 cells (IC50) [7] [µg/mL] | Kd [8] [nM] | Blocking binding of HEK293-Blue IL-4 cells (to IL-4) (IC50) [9] [µg/mL] | Inhibiting IL-4-related proliferation of TF-1 cells (IC50) [9] [µg/mL]
1 | B1 | 0.000975 | 0.0513 | no binding | 0.00332 | 0.00813 |  |  |  |  |  |  |  |  |  | 
2 | B2 |  |  |  |  |  | 0.00649 | 0.01 | 0.0837 | 0.0132 | 0.144 |  |  |  |  | 
3 | B3 |  |  |  | 0.00909 | 0.0397 |  |  |  |  |  | 0.00202 | 0.0203 | 0.725 |  | 
4 | B4 |  |  |  |  |  | 0.0066 | 0.00838 | 0.051 | 0.0137 | 0.108 |  |  |  |  | 
5 | B5 |  |  |  | 0.00341 | 0.0236 |  |  |  |  |  |  |  | 1.07 | 0.000943 | 0.0296
6 | B6 | 0.00507 | 0.102 |  |  |  | 0.0125 | 0.0148 | 0.101 | 0.0181 |  | 0.00324 | 0.207 |  | 0.000667 | 0.491
7 | B7 |  |  |  | 0.0118 | 0.162 |  |  |  |  |  | 0.00903 | 0.0464 | 0.278 |  | 
8 | B8 | 0.0798 | 0.418 | no binding | 0.0458 | 0.0299 |  |  |  |  |  |  |  |  |  | 
9 | B9 |  |  |  | 0.012 | 0.0753 |  |  |  |  |  |  |  | 0.284 | 0.00687 | 0.112
